From patent US20100278801A1 come the findings set out here.

Several values for one entry are separate records, joined by “and”; a condition that tells them apart may be missing. Identical values can stand only once. Like-named read-outs stand apart in the source and are kept apart here. A value given as a limit tells only on which side of the number the result lay.

In assay [1] the target is TGF-α (UniProt P01135). Conditions: Fc fusion.
Target sequence in this assay (P01135 40-89): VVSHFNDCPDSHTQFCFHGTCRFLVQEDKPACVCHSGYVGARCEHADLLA
In assay [2] the target is NRG1-β (UniProt Q02297). Conditions: Fc fusion.
Target sequence in this assay (Q02297 other isoform, or with tags, fused parts or gaps): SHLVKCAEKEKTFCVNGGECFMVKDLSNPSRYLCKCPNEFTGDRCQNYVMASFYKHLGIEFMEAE
Assay [3] deals with TGF-α (UniProt P01135). The assay can be described thus: biotin-ligand binding. Conditions: Fc fusion.
Target sequence in this assay (P01135 40-89): as the sequence (P01135 40-89) above
For a further assay, the target named is HB-EGF (UniProt Q99075). Description: biotin-ligand binding. Conditions: Fc fusion.
Assay [4] concerns the target TGF-α (UniProt P01135). Description: 125I-TGF-a saturation binding, heterodimer immobilised on anti-Fc coated plate; not saturated at 100 nM.
Target sequence in this assay (P01135 40-89 limits assumed): as the sequence (P01135 40-89) above
Assay [5] deals with NRG1-β (UniProt Q02297). The assay can be described thus: 125I-NRG1-β saturation binding, heterodimer immobilised on anti-Fc coated plate.
Target sequence in this assay (Q02297 other isoform, or with tags, fused parts or gaps limits assumed): as the sequence (Q02297 other isoform, or with tags, fused parts or gaps) above
The target in assay [6] is EGF (UniProt P01133). Description: Eu-ligand saturation binding. Conditions: Fc fusion.
The target in assay [7] is EGF (UniProt P01133). Description: Eu-EGF competition. Conditions: Fc fusion.

EGF, sequence (P01133 971-1023): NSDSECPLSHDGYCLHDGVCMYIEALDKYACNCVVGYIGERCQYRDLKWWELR
HB-EGF, sequence (Q99075 63-148): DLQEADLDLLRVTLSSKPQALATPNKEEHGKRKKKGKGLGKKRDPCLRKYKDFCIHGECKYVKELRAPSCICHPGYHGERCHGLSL

In the assay with TGF-α [1], “EGFRT15S:Fc homodimer (from UniProt P00533 25-645)” showed a Kd of 1.7 nM.
Take HER3:Fc (from UniProt P21860 20-643): the Kd with NRG1-β [2] was 17.1 nM and 17 nM.
As for “RB222 (from UniProt P00533 25-645; P21860 20-643)”, the Kd was 42.6 nM with TGF-α [3] and 1.58 nM in the assay with HB-EGF.
For the substance “RB222 (from UniProt P00533 25-645; P21860 20-643) (Fc fusion)”, the equilibrium dissociation constant (Kd) is greater than 30 nM with TGF-α [4] and 1.6 nM in the assay with NRG1-β [5].
“RB242 (from UniProt P00533 25-645; P21860 20-643)”: the dissociation constant Kd in the assay with EGF [6] is 0.77 nM. This substance showed a Ki with EGF [7] of 0.89 nM.
